{"source": "paper PMC3819817", "key": {"[1]": {"target": "recombinant Arabidopsis thaliana Nfu2 without the plastidial targeting sequence (Arabidopsis thaliana) (UniProt Q93W20)", "assay": "SEC"}, "[2]": {"target": "recombinant Arabidopsis thaliana Nfu2 without the plastidial targeting sequence (Arabidopsis thaliana) (UniProt Q93W20)", "assay": "SEC", "remark": "listed apart in the source"}}, "note": "“And” between values parts separate entries of the source, which are not always exact repeats. Equal entries are not always repeated. Where two headings read alike, the source gives them in different places.", "data": [{"substance": "recombinant Arabidopsis thaliana Nfu2 without the plastidial targeting sequence (from UniProt Q93W20 73-235) (natural protein)", "values": [{"measurement": "stoichiometry N", "setting": "[1]", "value": "4 and 2"}, {"measurement": "stoichiometry N", "setting": "[2]", "value": 2}]}]}
